Source: the supplement of paper PMC7877785
± gives the uncertainty stated by the source.

Assay: self-splicing fitness, log relative to wild type (ln ratio); higher = more splicing; Tetrahymena group I intron in knt gene, E. coli kanamycin selection, DiMSum; sequences stand for … in CUCUCU…GGAGGGAAAAGUUAUCAGGCAUGCACCUGGUAGCUAGUCUUUAAACCAAUAGAUUGCAUCGGUUUAAAAGGCAAGACCGUCAAAUUGCGGGAAAGGGGUCAACAGCCGUUCAGUACCAAGUCUCAGGGGAAACUUUGAGAUGGCCUUGCAAAGGGUAUGGUAAUAAGCUGACGGACAUGGUCCUAACCACGCAGCCAAGUCCUAAGUCAACAGAUCUUCUGUUGAUAUGGAUGCAGUUCACAGACUAAAUGUCGGUCGGGGAAGAUGUAUUCUUCUCAUAAGAUAUAGUCGGACCUCUCCUUAAUGGGAGCUAGCGGAUGAAGUGAUGCAACACUGGAGCCGCUGGGAACUAAUUUGUAUGCGAAAGUAUAUUGAUUAGUUUUGGAGUACUCGUGGUCG
Outline: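 Fitness was computed with DiMSum as the error-weighted combination of replicate fold changes, kanamycin versus none, each normalised to wild type. The library randomised all eight intron nucleotides of the P1ex region, with the intron placed in the knt kanamycin-resistance gene on pET-22b(+) in E. coli BL21(DE3). Six replicate transformations were grown overnight at 37°C or 30°C on LB agar with or without 25 μg/mL kanamycin, plus 100 μg/mL carbenicillin, 50 μM IPTG and 0.2% rhamnose. Pooled colonies were amplicon-sequenced on an Illumina HiSeq 2500.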

Sequence | self-splicing fitness (ln) (30 °C) | self-splicing fitness (ln) (37 °C)
UGUUAGCAAUAUUACGGUGG | -1.95 ± 0.16 | -0.147 ± 0.16
GUACAGCAAUAUUACGAGGG | -3.21 ± 0.17 | -2.42 ± 0.2
AUUUAGCAAUAUUACGUUUU | -3.37 ± 0.24 | -2.25 ± 0.2
UUCCAGCAAUAUUACGCGGA | -2.74 ± 0.24 | -3.39 ± 0.33
UGGUAGCAAUAUUACGUAAG | -1.53 ± 0.11 | -0.776 ± 0.16
ACCUAGCAAUAUUACGUCGG | -1.07 ± 0.078 | -1.11 ± 0.11
CGUCAGCAAUAUUACGCGCU | -0.602 ± 0.18 | -2.64 ± 0.32
AACUAGCAAUAUUACGCUUC | -3.74 ± 0.33 | -1.68 ± 0.2
CGCCAGCAAUAUUACGGCCA | -0.294 ± 0.11 | 0.0865 ± 0.13
AAUAAGCAAUAUUACGUUAA | -2.76 ± 0.19 | -0.928 ± 0.13
CACUAGCAAUAUUACGCCUU | -1.4 ± 0.27 | -1.19 ± 0.16
GAAAAGCAAUAUUACGCUAA | -2.24 ± 0.16 | -1.1 ± 0.13
UAACAGCAAUAUUACGUCUU | -1.12 ± 0.052 | -0.0714 ± 0.06
CUAAAGCAAUAUUACGGAGU | -4.03 ± 0.15 | -3.19 ± 0.23
AGCAAGCAAUAUUACGUAGU | -3.18 ± 0.18 | -2.14 ± 0.19
GACAAGCAAUAUUACGGGAC | -2.13 ± 0.25 | -1.02 ± 0.4
AUUCAGCAAUAUUACGCUAU | -1.45 ± 0.079 | -0.637 ± 0.1
UGGCAGCAAUAUUACGGAUA | -0.806 ± 0.098 | -0.358 ± 0.11
UAUGAGCAAUAUUACGGUGG | -1.85 ± 0.22 | -2.72 ± 0.37
CGACAGCAAUAUUACGUUCU | -0.971 ± 0.05 | -0.0323 ± 0.07
CAGAAGCAAUAUUACGUUCG | -0.642 ± 0.051 | 0.234 ± 0.064
CCCUAGCAAUAUUACGCGCU | – | -1.78 ± 0.47
AUUCAGCAAUAUUACGCUGC | -2.3 ± 0.13 | -2.35 ± 0.19
GGGCAGCAAUAUUACGAUAG | -3.54 ± 0.2 | -2.43 ± 0.22
GGCGAGCAAUAUUACGGUCU | -1.89 ± 0.2 | -1.03 ± 0.21
UUAGAGCAAUAUUACGAACA | -2.48 ± 0.19 | -0.84 ± 0.19

Sequence | self-splicing fitness (ln) (30 °C) | self-splicing fitness (ln) (37 °C)
GCCCAGCAAUAUUACGUGUA | -0.725 ± 0.046 | -0.0902 ± 0.058
UAUAAGCAAUAUUACGCUGA | -1.96 ± 0.22 | -1.53 ± 0.23
UCGGAGCAAUAUUACGGUGU | -3.4 ± 0.31 | -1.7 ± 0.37
GAAGAGCAAUAUUACGACGC | -1.55 ± 0.15 | 0.291 ± 0.16
UGACAGCAAUAUUACGUGUU | -4.32 ± 0.19 | -2.22 ± 0.19
UCACAGCAAUAUUACGUAGC | -2.87 ± 0.18 | -1.34 ± 0.21
GAUGAGCAAUAUUACGAGUC | -4.11 ± 0.33 | -2.21 ± 0.19
ACCCAGCAAUAUUACGUUAU | -1.91 ± 0.064 | -1.04 ± 0.081
AGGAAGCAAUAUUACGAGCG | -1.96 ± 0.24 | -1.08 ± 0.22
AAACAGCAAUAUUACGACCG | -1.6 ± 0.14 | 0.0387 ± 0.18
CACCAGCAAUAUUACGCACU | -3.96 ± 0.21 | -1.59 ± 0.12
CGGCAGCAAUAUUACGGUAC | -3.61 ± 0.49 | -2.9 ± 0.23
GCGUAGCAAUAUUACGUAUC | -3.35 ± 0.38 | -0.739 ± 0.2
AUGGAGCAAUAUUACGAGGU | -2.74 ± 0.2 | -3.38 ± 0.31
CGGAAGCAAUAUUACGGAGU | -4.49 ± 0.39 | -2.12 ± 0.2
CGUCAGCAAUAUUACGAUCC | -1.62 ± 0.086 | -0.418 ± 0.13
CGCGAGCAAUAUUACGUAUG | -1.62 ± 0.13 | -1.2 ± 0.19
CCGGAGCAAUAUUACGUUAC | -3.75 ± 0.2 | -1.67 ± 0.2
CAGUAGCAAUAUUACGGCAG | -0.259 ± 0.073 | 0.0185 ± 0.1
GGCUAGCAAUAUUACGGAGC | -3.22 ± 0.22 | -2.25 ± 0.26
UGGUAGCAAUAUUACGAAUA | -0.911 ± 0.17 | -1.17 ± 0.16
CUAGAGCAAUAUUACGCGGA | – | -1.33 ± 0.36
GCUAAGCAAUAUUACGCAGA | -2.53 ± 0.26 | -0.61 ± 0.21
AAAGAGCAAUAUUACGCAUC | -3.52 ± 0.35 | -2.24 ± 0.35
AUCUAGCAAUAUUACGGACU | 0.0775 ± 0.11 | 0.443 ± 0.12
CCGAAGCAAUAUUACGGAAG | -3.86 ± 0.24 | -1.31 ± 0.15

Sequence | self-splicing fitness (ln) (30 °C) | self-splicing fitness (ln) (37 °C)
GCCAAGCAAUAUUACGACGC | -0.669 ± 0.11 | 0.3 ± 0.14
GGGCAGCAAUAUUACGGUGA | -0.844 ± 0.074 | -0.671 ± 0.088
ACGGAGCAAUAUUACGUGUG | -3.92 ± 0.19 | -2.56 ± 0.14
GUUGAGCAAUAUUACGACAC | -0.129 ± 0.18 | -0.362 ± 0.19
GUACAGCAAUAUUACGAAGA | -2.52 ± 0.32 | -1.83 ± 0.28
GUAAAGCAAUAUUACGGACC | -1.15 ± 0.13 | -0.652 ± 0.24
AUGGAGCAAUAUUACGCACG | -2.3 ± 0.3 | -1.26 ± 0.34
AAGCAGCAAUAUUACGCCCA | -0.461 ± 0.15 | 0.244 ± 0.23
AUGCAGCAAUAUUACGUCUC | -1.93 ± 0.071 | -1.05 ± 0.092
AGCUAGCAAUAUUACGUUGC | -3.91 ± 0.25 | -3.13 ± 0.28
CUCCAGCAAUAUUACGGGGA | -3.46 ± 0.18 | -0.678 ± 0.1
ACUAAGCAAUAUUACGCAAC | -3.28 ± 0.26 | -1.17 ± 0.27
CGGUAGCAAUAUUACGUCAA | -1.08 ± 0.29 | –
CAAGAGCAAUAUUACGAAGG | -2.06 ± 0.17 | -0.821 ± 0.19
CGUGAGCAAUAUUACGUAGA | -3.22 ± 0.2 | -2.89 ± 0.22
CGAGAGCAAUAUUACGAUCG | -2.87 ± 0.43 | –
CGGGAGCAAUAUUACGGUCU | -2.67 ± 0.29 | -0.781 ± 0.45
ACAUAGCAAUAUUACGUUGA | -2.56 ± 0.17 | -1.66 ± 0.14
UGAUAGCAAUAUUACGUUGA | -3.42 ± 0.19 | -1.91 ± 0.14
GAGAAGCAAUAUUACGUGUG | -2.18 ± 0.12 | -1.96 ± 0.15
GCCAAGCAAUAUUACGCUUG | -3.72 ± 0.12 | -2.41 ± 0.14
GCUCAGCAAUAUUACGCUCC | -1.05 ± 0.15 | 0.283 ± 0.26
AGAUAGCAAUAUUACGCCUC | -3.23 ± 0.26 | -2.26 ± 0.29
CGCGAGCAAUAUUACGUGCG | – | -3.3 ± 0.47
AUGUAGCAAUAUUACGGAUC | -1.92 ± 0.2 | -1.61 ± 0.23
